# Laboratory results from patent US20260184748A1 (University of Pennsylvania, published 2026).
# Where no end group is shown, it is not given here.
# T1: TACR2 (UniProt P21452 1-398)
# T1 sequence (looked up): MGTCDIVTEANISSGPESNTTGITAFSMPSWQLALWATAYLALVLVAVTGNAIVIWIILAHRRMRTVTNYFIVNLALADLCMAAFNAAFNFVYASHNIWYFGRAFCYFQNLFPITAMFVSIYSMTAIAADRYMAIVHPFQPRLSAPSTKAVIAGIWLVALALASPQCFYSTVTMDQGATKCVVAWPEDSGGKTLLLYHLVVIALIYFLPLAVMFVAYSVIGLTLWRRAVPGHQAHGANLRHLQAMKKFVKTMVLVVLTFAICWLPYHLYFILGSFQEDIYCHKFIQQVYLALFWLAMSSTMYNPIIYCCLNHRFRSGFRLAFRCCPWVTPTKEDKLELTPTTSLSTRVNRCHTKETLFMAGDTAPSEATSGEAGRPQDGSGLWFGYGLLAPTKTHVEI
# T2: VIPR2 (UniProt P41587 24-438)
# T2 sequence (looked up): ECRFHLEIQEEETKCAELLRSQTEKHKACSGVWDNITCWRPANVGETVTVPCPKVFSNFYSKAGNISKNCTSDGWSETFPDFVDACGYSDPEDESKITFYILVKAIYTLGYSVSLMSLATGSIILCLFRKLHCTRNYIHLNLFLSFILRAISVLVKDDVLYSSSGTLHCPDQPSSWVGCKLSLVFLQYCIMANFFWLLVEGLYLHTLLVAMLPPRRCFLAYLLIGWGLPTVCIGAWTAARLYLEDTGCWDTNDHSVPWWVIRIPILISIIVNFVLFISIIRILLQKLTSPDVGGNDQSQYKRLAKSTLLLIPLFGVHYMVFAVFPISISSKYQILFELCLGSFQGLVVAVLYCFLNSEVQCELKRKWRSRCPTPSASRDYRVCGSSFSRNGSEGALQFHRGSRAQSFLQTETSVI
# T3: ADCYAP1R1 (UniProt P41586 21-468, limits assumed)
# T3 sequence (looked up): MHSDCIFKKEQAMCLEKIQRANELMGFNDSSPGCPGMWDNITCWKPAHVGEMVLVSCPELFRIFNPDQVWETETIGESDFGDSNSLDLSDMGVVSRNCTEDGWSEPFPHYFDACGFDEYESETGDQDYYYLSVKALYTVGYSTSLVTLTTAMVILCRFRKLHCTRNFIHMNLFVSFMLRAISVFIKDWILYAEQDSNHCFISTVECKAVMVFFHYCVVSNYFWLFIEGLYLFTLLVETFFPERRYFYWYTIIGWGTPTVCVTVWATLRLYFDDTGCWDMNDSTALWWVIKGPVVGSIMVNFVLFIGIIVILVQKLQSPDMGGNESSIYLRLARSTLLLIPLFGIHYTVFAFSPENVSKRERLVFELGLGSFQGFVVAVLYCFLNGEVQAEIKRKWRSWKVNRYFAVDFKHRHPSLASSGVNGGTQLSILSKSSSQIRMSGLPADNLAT
# T4: F2RL3 (UniProt Q96RI0 18-385, limits assumed)
# T4 sequence (looked up): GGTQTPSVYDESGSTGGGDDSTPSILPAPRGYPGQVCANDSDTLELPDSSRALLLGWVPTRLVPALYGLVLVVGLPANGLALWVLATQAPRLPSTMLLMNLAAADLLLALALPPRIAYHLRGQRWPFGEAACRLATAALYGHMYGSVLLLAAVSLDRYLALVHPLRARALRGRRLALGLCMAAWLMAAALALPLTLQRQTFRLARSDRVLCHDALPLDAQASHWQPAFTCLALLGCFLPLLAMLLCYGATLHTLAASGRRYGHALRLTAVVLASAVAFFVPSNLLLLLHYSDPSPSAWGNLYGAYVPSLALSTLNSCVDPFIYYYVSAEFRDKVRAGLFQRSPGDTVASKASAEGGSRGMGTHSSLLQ
# T5: GPR103 (UniProt Q96P65 1-431)
# T5 sequence (looked up): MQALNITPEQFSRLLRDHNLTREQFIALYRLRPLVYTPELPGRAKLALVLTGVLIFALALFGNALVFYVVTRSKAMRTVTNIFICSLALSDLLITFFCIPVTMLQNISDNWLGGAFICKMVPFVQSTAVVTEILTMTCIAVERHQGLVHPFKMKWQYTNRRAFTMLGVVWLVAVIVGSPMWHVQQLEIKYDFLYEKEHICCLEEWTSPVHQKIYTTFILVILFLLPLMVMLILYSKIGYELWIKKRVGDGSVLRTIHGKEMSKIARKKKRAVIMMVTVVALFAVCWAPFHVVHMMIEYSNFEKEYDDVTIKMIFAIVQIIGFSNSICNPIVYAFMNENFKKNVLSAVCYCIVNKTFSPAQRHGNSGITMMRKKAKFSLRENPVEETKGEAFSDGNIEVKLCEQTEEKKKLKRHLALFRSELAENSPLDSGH
# T6: GPR120 (UniProt Q5NUL3 1-361, limits assumed)
# T6 sequence (looked up): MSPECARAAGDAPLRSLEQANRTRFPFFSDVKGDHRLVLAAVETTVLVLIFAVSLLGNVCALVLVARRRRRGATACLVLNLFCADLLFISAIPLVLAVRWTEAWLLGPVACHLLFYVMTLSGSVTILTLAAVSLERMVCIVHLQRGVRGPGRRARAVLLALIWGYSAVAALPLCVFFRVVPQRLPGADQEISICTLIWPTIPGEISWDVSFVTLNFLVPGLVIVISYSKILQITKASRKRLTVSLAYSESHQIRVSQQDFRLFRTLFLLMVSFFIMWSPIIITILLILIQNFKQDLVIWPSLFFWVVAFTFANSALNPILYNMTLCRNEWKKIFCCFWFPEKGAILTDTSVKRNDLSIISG
# Assays:
# Test in all cases: cell-based or functional assay
# NPFFR1 = NPFFR1 (UniProt Q9GZQ6 1-430)
# Chain of NPFFR1 (Q9GZQ6 whole entry): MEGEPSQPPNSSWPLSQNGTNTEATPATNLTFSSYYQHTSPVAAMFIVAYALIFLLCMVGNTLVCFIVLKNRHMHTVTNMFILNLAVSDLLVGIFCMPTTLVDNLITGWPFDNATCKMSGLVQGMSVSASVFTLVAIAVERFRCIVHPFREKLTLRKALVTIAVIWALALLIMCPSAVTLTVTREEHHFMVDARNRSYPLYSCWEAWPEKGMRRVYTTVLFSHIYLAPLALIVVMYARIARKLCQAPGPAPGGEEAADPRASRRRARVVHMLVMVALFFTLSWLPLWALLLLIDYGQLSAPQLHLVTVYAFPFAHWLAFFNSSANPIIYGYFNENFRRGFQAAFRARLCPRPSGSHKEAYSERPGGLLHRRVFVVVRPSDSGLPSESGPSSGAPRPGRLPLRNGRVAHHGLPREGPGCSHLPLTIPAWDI
# OPRM1 = OPRM1 (UniProt P35372 1-400)
# Chain of OPRM1 (P35372 whole entry): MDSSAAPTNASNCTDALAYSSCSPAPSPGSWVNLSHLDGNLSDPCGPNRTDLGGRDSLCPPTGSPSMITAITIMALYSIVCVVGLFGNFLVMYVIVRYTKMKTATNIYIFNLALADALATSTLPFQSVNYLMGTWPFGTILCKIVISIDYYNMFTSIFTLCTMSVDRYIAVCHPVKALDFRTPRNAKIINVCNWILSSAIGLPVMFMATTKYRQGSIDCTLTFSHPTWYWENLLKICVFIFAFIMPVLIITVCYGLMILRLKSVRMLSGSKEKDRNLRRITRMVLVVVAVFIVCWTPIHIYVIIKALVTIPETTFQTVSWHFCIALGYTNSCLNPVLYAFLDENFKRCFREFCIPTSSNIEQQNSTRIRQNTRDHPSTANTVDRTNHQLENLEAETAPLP
# SCTR = SCTR (UniProt P47872 23-440)
# Chain of SCTR (P47872 23-440 limits assumed): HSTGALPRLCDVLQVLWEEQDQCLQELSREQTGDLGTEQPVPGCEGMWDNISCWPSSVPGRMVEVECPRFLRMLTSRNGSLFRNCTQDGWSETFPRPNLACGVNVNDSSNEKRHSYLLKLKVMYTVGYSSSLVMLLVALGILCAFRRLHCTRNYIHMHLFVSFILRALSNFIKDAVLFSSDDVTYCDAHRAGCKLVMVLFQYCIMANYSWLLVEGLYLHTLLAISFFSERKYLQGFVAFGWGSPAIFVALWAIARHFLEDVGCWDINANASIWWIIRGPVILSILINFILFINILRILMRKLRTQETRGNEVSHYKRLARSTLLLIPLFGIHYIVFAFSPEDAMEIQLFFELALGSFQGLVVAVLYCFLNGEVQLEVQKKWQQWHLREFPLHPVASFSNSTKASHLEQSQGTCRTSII
# TACR2 = target: T1, TACR2
# VIPR2 = target: T2, VIPR2
# ADCYAP1R1 = target: T3, ADCYAP1R1
# F2RL3 = target: T4, F2RL3
# GPR103 = target: T5, GPR103
# GPR120 = target: T6, GPR120
binder,measurement,setting,value
"QATVGDVNTDRPGLLDLK (also: synthesised on Rink amide resin, C-terminal amide not given here outright) [octadecaneuropeptide (ODN)]","% Activity, arrestin, antagonist mode, 2.5 uM",NPFFR1,-4.2%
same,"% Activity, arrestin, antagonist mode, 2.5 uM",OPRM1,-21.1%
same,"% Activity, arrestin, antagonist mode, 2.5 uM",SCTR,7.7%
same,"% Activity, arrestin, antagonist mode, 2.5 uM",TACR2,8.3%
same,"% Activity, arrestin, antagonist mode, 2.5 uM",VIPR2,-6.7%
same,"% Activity, arrestin, antagonist mode, 2.5 uM",ADCYAP1R1,0.9%
same,"% Activity, arrestin, antagonist mode, 2.5 uM",F2RL3,-25.9%
same,"% Activity, arrestin, antagonist mode, 2.5 uM",GPR103,14.6%
same,"% Activity, arrestin, antagonist mode, 2.5 uM",GPR120,22.7%
